US20230074615A1
Residue numbers refer to the chain shown, from its start.

Columns and labels:
[1] = molecular target: catalytic domain of human MMP-9 (cdMMP-9) (human) (UniProt P14780); test: biolayer interferometry, biotinylated cdMMP-9 on streptavidin biosensors, Fab in solution
[2] = molecular target: catalytic domain of human MMP-9 (cdMMP-9) (human) (UniProt P14780); test: cell-based or functional assay
[3] = molecular target: catalytic domain of human MMP-9 (cdMMP-9) (human) (UniProt P14780); test: inhibition of cdMMP-9 proteolytic activity, FRET peptide substrate
[4] = molecular target: catalytic domain of human MMP-9 (cdMMP-9) (human) (UniProt P14780); test: biolayer interferometry, biotinylated protease on streptavidin sensor, Fab in solution
[5] = molecular target: catalytic domain of human MMP-9 (cdMMP-9) (human) (UniProt P14780)
[6] = molecular target: catalytic domain of human MMP-9 (cdMMP-9) (human) (UniProt P14780); test: FRET peptide substrate inhibition assay, K1=IC50/(S/Km+1)
[7] = molecular target: catalytic domain of human MMP-9 (cdMMP-9) (human) (UniProt P14780); test: biolayer interferometry, IgG on protein A sensor, protease in solution

Sequence of UniProt P14780 (P14780 other isoform, or with tags, fused parts or gaps limits assumed): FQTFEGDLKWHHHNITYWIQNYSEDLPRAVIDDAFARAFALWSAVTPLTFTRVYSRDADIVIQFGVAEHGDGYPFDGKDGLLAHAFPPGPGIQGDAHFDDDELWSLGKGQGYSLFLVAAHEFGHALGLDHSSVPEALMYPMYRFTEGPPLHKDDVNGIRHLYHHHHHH

B1: anti-MMP9 Fab L13 (Fab, V domains shown)
VH: EVQLVESGGGLVQPGGSLRLSCAASGFNISSSYIHWVRQAPGKGLEWVASISSSSGYTSYADSVKGRFTISADTSKNTAYLQMNSLRAEDTAVYYCARKYMVFGTRMGWVEHTDFAGQGYYAMDYWGQGTLVTVSS
VL: DIQMTQSPSSLSASVGDRVTITCRASQSVSSAVAWYQQKPGKAPKLLIYSASSLYSGVPSRFSGSRSGTDFTLTISSLQPEDFATYYCQQYAALITFGQGTKVEIKR
Which results are given for B1?
koff [1]: 0.0044 s⁻¹; kon [1]: 83000 M⁻¹ s⁻¹; degradation of type I collagen by cdMMP-9 (SDS-PAGE) [2]: 4%; IC50 [3]: 260 nM; Kd [4]: 120 nM; Km of cdMMP-9 on FRET peptide substrate at 63 nM Fab L13 (without Fab: 1.3) [5]: 3.3 µM; Km of cdMMP-9 on FRET peptide substrate at 125 nM Fab L13 (without Fab: 1.3) [5]: 4.6 µM; Km of cdMMP-9 on FRET peptide substrate at 250 nM Fab L13 (without Fab: 1.3) [5]: 5.1 µM; Vmax of cdMMP-9 on FRET peptide substrate at 63 nM Fab L13 (without Fab: 1.3) [5]: 0.7 ΔRFU/s; Vmax of cdMMP-9 on FRET peptide substrate at 125 nM Fab L13 (without Fab: 1.3) [5]: 0.7 ΔRFU/s; Vmax of cdMMP-9 on FRET peptide substrate at 250 nM Fab L13 (without Fab: 1.3) [5]: 0.6 ΔRFU/s; Ki [6]: 150 nM

B2: anti-MMP9 IgG H3 (antibody, V domains shown)
VH: EVQLVESGGGLVQPGGSLRLSCAASGFNIYSSSMHWVRQAPGKGLEWVAYIYSSYGYTYYADSVKGRFTISADTSKNTAYLQMNSLRAEDTAVYYCARRFEPGLLKRNKRWISYTLCEAGYGMDYWGQGTLVTVSS
VL: B1 VL with Y91A, A92S, A93H
What does the source list for B2?
Kd [7]: 71 nM; IC50 [3]: 92 nM; Ki [6]: 51 nM

B3: anti-MMP9 IgG L13 (antibody, V domains shown)
VH: B1 VH
VL: B1 VL
Which Kd [7] does the source give for B3 here?
The Kd was 53 nM.

And the IC50 [3]?
Its IC50 is 200 nM.

What about the Ki [6] of the same binder?
The Ki was 110 nM.

B4: anti-MMP9 Fab H3 (Fab, V domains shown)
VH: B2 VH
VL: B1 VL with Y91A, A92S, A93H
Which results are given for B4?
koff [1]: 0.0048 s⁻¹; kon [1]: 49000 M⁻¹ s⁻¹; Kd [4]: 98 nM; Ki [6]: 66 nM

B5: anti-MMP9 Fab H25 (Fab, V domains shown)
VH: EVQLVESGGGLVQPGGSLRLSCAASGFNIYSSSMHWVRQAPGKGLEWVASIYSYYGYTYYADSVKGRFTISADTSKNTAYLQMNSLRAEDTAVYYCARCKLYTSYMIPVGSDSVNRCMSSYGMDYWGQGTLVTVSS
VL: DIQMTQSPSSLSASVGDRVTITCRASQSVSSAVAWYQQKPGKAPKLLIYSASSLYSGVPSRFSGSRSGTDFTLTISSLQPEDFATYYCQQGGGASLITFGQGTKVEIKR
B5 was tested. Which koff [1] did it give?
Its koff is 0.031 s⁻¹.

And the kon [1]?
Its kon is 69000 M⁻¹ s⁻¹.

What about the IC50 [3] of the same binder?
The IC50 was 520 nM.

What about the Kd [4] of the same binder?
The Kd was 450 nM.

What about the Ki [6] of the same binder?
The Ki was 290 nM.
